Data as given in patent publication US7108990B2, “Chemokine receptor” (ChemoCentryx, Inc., priority 1999, dated 2006).
Entries after “also recorded” stand apart in the source; their conditions may differ. Blank lines part the entries; values can stand above or below the molecule they belong to.

What was measured:
CCX CKR [1] = target: T1, CCX CKR (Homo sapiens, UniProt Q9NPB9); experiment: Radioligand binding competition (DisplaceMax) to CCX CKR stable transfectants with Scatchard transformation
T1 construct: Full length CCX CKR expression constructs were made in pIRESpuro expression vector; expressed in transfected cells
T1 sequence (Q9NPB9 1-350): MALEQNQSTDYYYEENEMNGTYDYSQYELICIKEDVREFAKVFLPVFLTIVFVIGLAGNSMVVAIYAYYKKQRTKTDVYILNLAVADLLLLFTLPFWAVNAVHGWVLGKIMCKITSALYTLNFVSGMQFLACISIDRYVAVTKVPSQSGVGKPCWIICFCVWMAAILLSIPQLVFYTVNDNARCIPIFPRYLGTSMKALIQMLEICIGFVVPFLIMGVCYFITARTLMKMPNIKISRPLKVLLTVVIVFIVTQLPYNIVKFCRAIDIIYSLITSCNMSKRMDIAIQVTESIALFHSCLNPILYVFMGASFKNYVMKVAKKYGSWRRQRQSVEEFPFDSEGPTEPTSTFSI
Source text: In one embodiment, binding is detected as described by Dairaghi et al., 1997, J. Biol. Chem. 272:28206–209 (incorporated by reference in its entirety for all purposes) substituting CCX CKR transfectants for the CCR3 transfectants). In one embodiment, binding is detected using the filter based technique described by Dairaghi et al., 1999, J. Biol. Chem. 274:2156 (incorporated by reference in its entirety for all purposes), e.g., as shown in FIG. 4. Briefly, this technology employs expanded, efficiency-maximized radioligand binding utilizing filtration protocols. In these assays, 1×10^5 CCXCKR-293 HEK cells are incubated with ^125I-labeled ELC (MIP3beta) (final concentration of ˜0.05 nM) in the presence of unlabeled chemokine for 3 h at 4° C. in 25 mM HEPES, 140 mM NaCl, 1 mM CaCl2, 5 mM MgCl2, and 0.2% bovine serum albumin, adjusted to pH 7.1. Reactions were aspirated onto PEI-treated GF/B glass filters using a cell harvester (Packard). Filters are washed twice (25 mM HEPES, 500 mM NaCl, 1 mM CaCl2 5 mM MgCl2, adjusted to pH 7.1) and scintillant (e.g., MicroScint 20; 50 μl) is added to dried filters and counted (e.g., using a Packard Topcount scintillation counter). The competition dose-response curves is analyzed by standard methods to determine IC50 values (e.g., using GraphPad Prism software (San Diego, Calif.)). Additionally, a Scatchard transformation can be used to estimate the receptor sites per cell (e.g., using WaveMetrics Igor software (Lake Oswego, Oreg.)).
(§1) Binding analysis was carried out using efficiency-maximized radioligand binding utilizing filtration protocols designated “Displace Max” (Dairaghi et al., 1999, J. Biol. Chem. 274:21569). In these assays, DisplaceMax employed the simultaneous interrogation of CCX CKR transfectants by >80 distinct purified chemokines in the ability to displace radiolabeled ELC or TECK, using the protocol described (Dairaghi et al., 1999, J. Biol. Chem. 274:21569).
The binding interactions identified in the primary screen were examined quantitatively by extensive radioligand binding competition to CCX CKR stable transfectants and Scatchard transformation of the displacement data (FIG. 4B). […] In each case, the murine versions of these chemokines also bound, and with even greater affinity; the apparent Kd's are listed in FIG. 4B. […] In similar experiments, murine CTACK bound the receptor with a Kd of ˜9 nM (not shown). CTACK is also referred to as CCL27, ALP, ILC, and ESkine.

CCX CKR [2] = target: T1, CCX CKR; experiment: Ligand binding fingerprint: cold chemokines competing against 125I-ELC on CCX CKR stable transfectants; details: cold competitor at 200 nM; human and murine chemokines
Source text: In order to rapidly and thoroughly define a given chemokine receptor's ligand binding fingerprint, we have established an approach to comprehensively profile chemokine receptors using a large array of purified chemokines and chemokine variants. We used this approach to confirm independently the interaction of ELC and other chemokines with CCX CKR. Employing radioligand binding of ^125-labeled-ELC or ^125-TECK to CCX CKR stable transfectants, chemokine specificity for the new receptor was determined.
as §1

CCX CKR [3] = target: T1, CCX CKR; experiment: Adhesion of HEK293-CCX CKR cells to immobilized stalkokines and competition by soluble chemokines; format: cell-based; details: soluble recombinant chemokine 5–10 ug/ml
Source text: “Stalkokine” technology was used to identify the chemokines bound by the CCX CKR. Briefly, immobilized native chemokines alone are incapable of capturing cells bearing cognate receptors (Imai et al., 1997, Cell 91:521). We have developed non-native chemokine structures, stalkokines, comprising chemokine moieties engineered as N-terminal attachments to extended modified mucins (Bazan et al., 1997, Nature 385:640). In one embodiment, stalkokines, harvested in the supernatants of HEK293 cells after transient transfection, are anchored to solid substrates via antibodies against carrier domains (e.g. poly-His epitopes) engineered to the carboxyl terminus, leaving the chemokine domain free to interact with candidate orphan receptors.
To determine ligand binding to CCX CKR, HEK293-CCX CKR cells were used to interrogate chemokine ‘stalkokines’ (SK), i.e., molecules in which discrete chemokine domains were engineered to be tethered to the end of an extended stalk structure. Stalkokines were interrogated using 8-well chamber slides coated first with anti-His anchoring antibody (10 ug/ml in PBS overnight at RT), which were washed and ‘blocked’ (2% FBS/0.5% BSA in PBS); treated with 250 ul of HEK293 cell stalkokine supernatants (1 hr at 37 C), and incubated with 500,000 HEK293-CCX CKR transfectants (1.5 hrs at RT). Inhibition of adhesion by competition with soluble chemokines was done by incubating cells with 5–10 ug/ml of recombinant chemokines. In all cases, nonadherent cells were removed by washing in PBS; remaining adherent cells were fixed with 1% glutaraldehyde, photoimaged and counted. As a primary screen this adhesion would reveal putative receptor-ligand interactions.

CCX CKR [4] = target: T1, CCX CKR; experiment: Preliminary chemotaxis analysis of CCX CKR transfectants; format: cell-based; details: preliminary chemotaxis analyses
CCX CKR [5] = target: T1, CCX CKR; experiment: Ligand induced internalization of Flag-CCX CKR in 293 cells (FACS); format: cell-based; details: 100 nM chemokine, 37° C., 15 or 45 minutes, 293 F-CCR10 cells
Protocol: 293 cells transfected with the Flag-CCX CKR fusion plasmid (i.e., “293 F-CCR10 cells;” see Example 3) were incubated at 37° C. with varying concentrations of chemokines (ELC, SLC, TECK, murine CTACK and MCP-4) for 15 or 45 minutes. Following incubation, the cells were washed and fixed with 3% paraformaldehyde for 15 minutes on ice. The cells were stained with anti-Flag M1 antibody, followed by a PE-conjugated anti-mouse secondary antibody. FACS analysis were then carried out to determine surface expression of the receptor.
Results: A reduction in antibody binding in the presence of ligand is an indication of ligand-induced internalization of the receptor.

CCX CKR [6] = target: T1, CCX CKR; experiment: Homologous competition binding assay with radiolabeled chemokine on HEK293-CCX CKR cells; details: HEK293-CCX CKR cells versus wildtype HEK293 cells
Source text: Furthermore ELC-SK mediated adhesion was abolished in the presence of soluble native ELC as a competitor (FIG. 3A, top row). […] Moreover, radiolabeled ELC was used in a traditional homologous competition assay in the presence of increasing concentrations of unlabeled ELC. […] Taken together, the stalkokine-based adhesion and radiolabeled ligand binding/homologous competition assays indicate that CCX CKR is a new chemokine receptor that bound a novel compliment of chemokines.

affinity of binding to CCX CKR, in words (CCX CKR [1]): high affinity
competition with 125I-labeled ELC binding to CCX CKR (fingerprint) (CCX CKR [2]): bound well
migration of CCX CKR transfectants in response to chemokine (CCX CKR [4]): moderate migration
binding in homologous competition of radiolabeled with unlabeled chemokine (CCX CKR [6]): significant binding
Molecule: ELC: EBI1 ligand chemokine, recombinant
effect of soluble chemokine on ELC-SK mediated adhesion of HEK293-CCX CKR cells (CCX CKR [3]): abolished; also recorded: ablation of adhesion
internalization of CCX CKR (CCX CKR [5]): Internalization of the receptor was observed

affinity of binding to CCX CKR, in words (CCX CKR [1]): high affinity
competition with 125I-labeled ELC binding to CCX CKR (fingerprint) (CCX CKR [2]): bound well
migration of CCX CKR transfectants in response to chemokine (CCX CKR [4]): moderate migration
B1: SLC: secondary lymphoid-tissue chemokine, recombinant (protein)
chain: SDGGAQDCCLKYSQRKIPAKVVRSYRKQEPSLGCSIPAILFLPRKRSQAELCADPKELWVQQLMQHLDKTPSPQKPAQGCRKDRGASKTGKKGKGSKGCKRTERSQTPKGP
effect of soluble chemokine on ELC-SK mediated adhesion of HEK293-CCX CKR cells (CCX CKR [3]): significant reduction; also recorded: ablation of adhesion
internalization of CCX CKR (CCX CKR [5]): Internalization of the receptor was observed
